According to paper PMC6265484, “Homodimerization regulates an endothelial specific signature of the SOX18 transcription factor”:

How the values were obtained:
SOX18 full length [1] = target: T1, SOX18 full length (mouse, UniProt P43680 1-377); assay: fluorescence polarization; 2 mM Mg2+; maximum binding (highest mP); FP: 30 mM HEPES pH 7.5, 100 mM KCl, 40 mM NaCl, 10 mM ammonium acetate, 10 mM guanidinium HCl, 2 mM MgCl2, 0.5 mM EDTA, 0.01% NP-40, room temp, 5 nM DNA, 5-150; conditions: protein: recombinant; tags: N-terminal HIS-GST; chain copies: 2; label: 5'-fluorescein; blunt
T1 sequence (P43680 whole entry): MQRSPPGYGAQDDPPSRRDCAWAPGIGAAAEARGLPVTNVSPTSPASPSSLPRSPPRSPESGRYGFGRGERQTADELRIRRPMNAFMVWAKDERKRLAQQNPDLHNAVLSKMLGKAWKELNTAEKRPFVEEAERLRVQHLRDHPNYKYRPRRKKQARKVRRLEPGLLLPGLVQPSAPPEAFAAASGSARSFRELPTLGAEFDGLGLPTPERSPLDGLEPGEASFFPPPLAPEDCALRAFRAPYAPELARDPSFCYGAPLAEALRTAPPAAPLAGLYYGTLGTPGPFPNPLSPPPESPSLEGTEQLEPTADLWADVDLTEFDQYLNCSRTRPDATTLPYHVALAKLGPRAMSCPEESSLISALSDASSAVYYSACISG

SOX9-HMG = SOX9-HMG (UniProt Q04887 105-173); assay: EMSA; 50 uM Zn2+; two HMG bind; FP: 30 mM HEPES pH 7.5, 100 mM KCl, 40 mM NaCl, 10 mM ammonium acetate, 10 mM guanidinium HCl, 2 mM MgCl2, 0.5 mM EDTA, 0.01% NP-40, room temp, 5 nM DNA, 5-150; conditions: protein: recombinant; chain copies: 2; label: 5'-Cy5; blunt
Chain of SOX9-HMG (Q04887 105-173): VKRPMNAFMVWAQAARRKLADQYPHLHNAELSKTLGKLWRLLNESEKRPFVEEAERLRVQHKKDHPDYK

SOX18-HMG (Sox18_79) = SOX18-HMG (Sox18_79) (mouse, UniProt P43680 77-155); assay: EMSA; 15 nM protein, 1 nM DNA, 50 uM Zn2+; two HMG bind; FP: 30 mM HEPES pH 7.5, 100 mM KCl, 40 mM NaCl, 10 mM ammonium acetate, 10 mM guanidinium HCl, 2 mM MgCl2, 0.5 mM EDTA, 0.01% NP-40, room temp, 5 nM DNA, 5-150; conditions: protein: recombinant; tags: pETG20A or pHisMBP vector; chain copies: 2; label: 5'-Cy5; blunt
Chain of SOX18-HMG (Sox18_79) (P43680 77-155): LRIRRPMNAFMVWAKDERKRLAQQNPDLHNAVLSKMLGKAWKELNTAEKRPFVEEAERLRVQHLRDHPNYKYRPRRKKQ

SOX18 full length [2] = target: T1, SOX18 full length; assay: fluorescence polarization; 2 mM Mg2+; FP: 30 mM HEPES pH 7.5, 100 mM KCl, 40 mM NaCl, 10 mM ammonium acetate, 10 mM guanidinium HCl, 2 mM MgCl2, 0.5 mM EDTA, 0.01% NP-40, room temp, 5 nM DNA, 5-150; conditions: protein: recombinant; tags: N-terminal HIS-GST; chain copies: 2; label: 5'-fluorescein; blunt

B1: IR5 (FP) (dsDNA)
DNA 1: CGCCAGTAGGAACAATGCGGCATTGTTTTCCGGGGGC
DNA 2: GCCCCCGGAAAACAATGCCGCATTGTTCCTACTGGCG
B1: binds (SOX18 full length [1]).

B2: IR5 (EMSA) (dsDNA)
DNA 1: B1 DNA 1
DNA 2: B1 DNA 2
B2: binds (SOX9-HMG); binds (SOX18-HMG (Sox18_79)).

B3: IR1 (FP) (dsDNA)
DNA 1: CGCCAGTAGGGCAACAATGATTGTTGCTTCCGGGGGC
DNA 2: GCCCCCGGAAGCAACAATCATTGTTGCCCTACTGGCG
For B3, the binding signal (SOX18 full length [2]) was ~0.5 occupancy relative to IR5.
